{"source": "patent US20050064507A1", "about": "“Determining kinase specificity” (priority 2003, published 2005)"}
{"molecular_target": "T1, PKC-delta (Homo sapiens, UniProt Q05655)", "T1 construct": "purchased Calbiochem", "T1 sequence (Q05655 whole entry)": "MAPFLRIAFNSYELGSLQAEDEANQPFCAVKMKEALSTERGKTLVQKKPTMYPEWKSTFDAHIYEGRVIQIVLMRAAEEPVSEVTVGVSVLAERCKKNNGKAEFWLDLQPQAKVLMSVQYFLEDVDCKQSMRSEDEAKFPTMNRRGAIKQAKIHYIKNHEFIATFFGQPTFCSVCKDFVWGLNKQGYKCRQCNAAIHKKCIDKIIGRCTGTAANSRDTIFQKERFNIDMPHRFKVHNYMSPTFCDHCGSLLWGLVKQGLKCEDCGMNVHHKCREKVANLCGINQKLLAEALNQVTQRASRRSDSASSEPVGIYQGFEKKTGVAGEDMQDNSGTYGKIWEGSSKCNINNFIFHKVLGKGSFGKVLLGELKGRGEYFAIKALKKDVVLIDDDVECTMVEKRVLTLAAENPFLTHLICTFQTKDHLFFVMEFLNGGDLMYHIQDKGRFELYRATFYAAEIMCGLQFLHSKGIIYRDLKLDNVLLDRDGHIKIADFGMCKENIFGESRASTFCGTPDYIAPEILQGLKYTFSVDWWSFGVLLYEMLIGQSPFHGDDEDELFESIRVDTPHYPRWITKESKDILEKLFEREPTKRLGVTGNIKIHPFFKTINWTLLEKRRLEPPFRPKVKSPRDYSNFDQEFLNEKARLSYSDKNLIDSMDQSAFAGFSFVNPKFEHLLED", "assay": "In vitro kinase assay: peptide phosphorylation by PKC-delta", "format": "biochemical", "conditions": "PKC-delta", "text": "(§1) One approach to validating a substrate identification method can involve, for example, comparison of substrate sites predicted by the method with in vitro phosphorylation results obtained using the selected kinase and peptides of known sequences. Such a systematic validation has been performed for the methods described herein. For example, a panel of seventy five peptides was synthesized, the phosphorylation observed for each peptide was experimentally measured, the amount of phosphorylation was quantified, the phosphorylation results for each peptide were normalized to the phosphorylation observed with the best substrate tested and these amounts were compared with predictions made according to the invention and according to the procedures provided by others. These peptides are referred to herein as proteomic peptides because their sequences are chosen from proteins in the human proteome; unlike the test sets employed herein, these peptides include no degenerate positions\n(§2) Table 2 compares the present predictions with actual measurements of phosphorylation on validating peptides. The method of synthesis of the validating peptides was as described elsewhere in the application, and each included an N-terminal linker sequence of biotinylated-Lys-dansylated-Lys-Pro-Pro-Gly (SEQ ID NO:231). The length of the remaining “core” of the validating peptides ranged from 12-21 residues with one to five S/T residues. In vitro phosphorylation of these validating peptides was measured in the manner described herein. […] In vitro phosphorylation results for the validating peptides were expressed as normalized values, namely as a percentage of phosphorylation of the best validating peptide substrate in the group.\n(§3) The conditions of the kinase assay and the amount of active kinase used varied with the kinase and with the accuracy needed. For a typical experiment, 5-20 ng of kinase was used per well and each peptide pool was assayed in duplicate wells. Note that the absolute amount of kinase used was not usually a critical parameter, because the desired information related to specificity of the kinase not its absolute activity, and robustness of the assay depends on comparisons of the same amount of kinase on different peptides. The combination of kinase concentration and assay duration was modified to assure that the stoichiometry of peptide phosphorylation never exceeded 5%. The choice of kinase buffer depended on the kinase being analyzed. For studies of PKC, 100 mM HEPES, 0.05% Triton-X100, 1 mM CaCl2, 20 mM MgCl2, 0.2 mg/ml phosphatidyl serine (Avanti Polar Lipids), PMA 100 ng/ml was typically used. The lipid stock was prepared by transferring 3 mg phosphatidyl serine into iced mixture of 450 μl water plus 50 μl of 10% Triton-X100, sonicating 10 times on ice for 1 sec each.\n(§4) The kinase reaction mixture was assembled by sequential addition to a tube held on ice of: 5 μl peptide (100 μM for final concentration of 10 μM), 15 μl of kinase (typically 5 ng/well, in appropriate kinase buffer), 30 μl of ATP (1 uCi/well of ^32P-gamma ATP in a stock of 167 μM cold ATP in the kinase buffer; for final concentration for 100 μM ATP). The mixture was rapidly warmed to desired reaction temperature (30° C. for PKC) and incubated for the desired duration (usually 10 minutes). The kinase assay was terminated by transfer to 4° C. water batch, and rapid addition of an equal volume (50 μl) of stop solution [0.1M ATP+0.1M EDTA in water, pH 8].\n(§5) The peptides were then captured from the reaction mixture by transfer to a Reacti-Bind Streptavidin High Binding Capacity Coated Plates (HBC) (Pierce Biotechnology) as follows. The HBC plates were pre-rinsed three times with PBS/Tween PBS/Tween20 0.05% (PBS/Tween). […]"}
{"substance": "11 (KKKFRTPSFLKKSKK) [compound 11]", "phosphorylation in the in vitro validating assay": "highly phosphorylated"}
{"substance": "7 (RKIPKRPGSVHRTPSRQ) [compound 7]", "phosphorylation in the in vitro validating assay": "highly phosphorylated"}
{"substance": "69 (LALTARESSVRSGGAG) [compound 69]", "phosphorylation in the in vitro validating assay": "poorly phosphorylated"}
{"substance": "9 (QKKSRLRRRASQLKI) [compound 9]", "phosphorylation in the in vitro validating assay": "highly phosphorylated"}
{"substance": "64 (ALRAPKPTLRYFTTERF) [compound 64]", "phosphorylation in the in vitro validating assay": "poorly phosphorylated"}
{"substance": "4 (KFARKSTRRSIRLPE) [compound 4]", "phosphorylation in the in vitro validating assay": "highly phosphorylated"}
{"substance": "60 (LRRKHLGTLNFGGIR) [compound 60]", "phosphorylation in the in vitro validating assay": "poorly phosphorylated"}
{"substance": "66 (GFAKKIGSGQKTWTF) [compound 66]", "phosphorylation in the in vitro validating assay": "poorly phosphorylated"}
{"molecular_target": "T1, PKC-delta", "assay": "In vitro kinase assay: peptide phosphorylation by PKC-delta", "format": "biochemical", "conditions": "peptide concentration of 10 nM; percentage of phosphorylation of the best validating peptide substrate", "text": "as §1, §2, §3, §4, §5", "units": {"Measured in vitro phosphorylation by PKC-delta": "%"}}
{"substance": "11 (KKKFRTPSFLKKSKK) [compound 11]", "Measured in vitro phosphorylation by PKC-delta": 25}
{"substance": "63 (QRQERIFSKRRGQDF) [compound 63]", "Measured in vitro phosphorylation by PKC-delta": 1}
{"substance": "39 (LLGSGKVTDRKAL) [compound 39]", "Measured in vitro phosphorylation by PKC-delta": 3}
{"substance": "18 (KKRFSFKKSFKLSGFSFKKN) [compound 18]", "Measured in vitro phosphorylation by PKC-delta": 16}
{"substance": "8 (AARKKRISVKKKQEQ) [compound 8]", "Measured in vitro phosphorylation by PKC-delta": 35}
{"substance": "27 (KKRKKKSSKSLAHA) [compound 27]", "Measured in vitro phosphorylation by PKC-delta": 8}
{"substance": "71 (RRRQKRRTGALVLSRGGKR) [compound 71]", "Measured in vitro phosphorylation by PKC-delta": 1}
{"substance": "7 (RKIPKRPGSVHRTPSRQ) [compound 7]", "Measured in vitro phosphorylation by PKC-delta": 38}
{"substance": "42 (QPEGLRSLKKPDRKKR) [compound 42]", "Measured in vitro phosphorylation by PKC-delta": 3}
{"substance": "16 (DGQKRKKSLRKKLD) [compound 16]", "Measured in vitro phosphorylation by PKC-delta": 17}
{"substance": "13 (WKGKRRSKARKKRK) [compound 13]", "Measured in vitro phosphorylation by PKC-delta": 22}
{"substance": "44 (VLAKKGTSKTPVPE) [compound 44]", "Measured in vitro phosphorylation by PKC-delta": 2}
{"substance": "38 (NYLRRRLSDSNFMAN) [compound 38]", "Measured in vitro phosphorylation by PKC-delta": 3}
{"substance": "74 (IDYYKKTSNGRLPVK) [compound 74]", "Measured in vitro phosphorylation by PKC-delta": 0}
{"substance": "41 (FVHQASFKFGQGD) [compound 41]", "Measured in vitro phosphorylation by PKC-delta": 3}
{"substance": "31 (RKKRKKKSSKSLAHAGVALA) [compound 31]", "Measured in vitro phosphorylation by PKC-delta": ">5"}
{"substance": "65 (IKVTHKATGKVMVMK) [compound 65]", "Measured in vitro phosphorylation by PKC-delta": 1}
{"substance": "36 (GENVLKKSMKSRVKG) [compound 36]", "Measured in vitro phosphorylation by PKC-delta": 4}
{"substance": "43 (AWVTVHEKKSSRKSEYL) [compound 43]", "Measured in vitro phosphorylation by PKC-delta": 3}
{"substance": "22 (LLKKRDSFRTPRDSKLE) [compound 22]", "Measured in vitro phosphorylation by PKC-delta": 12}
{"substance": "52 (HKHSPEKRGSERKEG) [compound 52]", "Measured in vitro phosphorylation by PKC-delta": 2}
{"substance": "49 (VQQLLRSSNRRLEQL) [compound 49]", "Measured in vitro phosphorylation by PKC-delta": 2}
{"substance": "50 (ENLRRVATDRRHLGH) [compound 50]", "Measured in vitro phosphorylation by PKC-delta": 2}
{"substance": "67 (AINSRETMFHKERFK) [compound 67]", "Measured in vitro phosphorylation by PKC-delta": 1}
{"substance": "69 (LALTARESSVRSGGAG) [compound 69]", "Measured in vitro phosphorylation by PKC-delta": 1}
{"substance": "9 (QKKSRLRRRASQLKI) [compound 9]", "Measured in vitro phosphorylation by PKC-delta": 34}
{"substance": "53 (AKNLKTLQKRDSFIG) [compound 53]", "Measured in vitro phosphorylation by PKC-delta": 2}
{"substance": "46 (GQAWGRQSPRRLED) [compound 46]", "Measured in vitro phosphorylation by PKC-delta": 2}
{"substance": "62 (AVRDMRQTVAVGVIK) [compound 62]", "Measured in vitro phosphorylation by PKC-delta": 1}
{"substance": "54 (ENLRKVTTDKKSLAY) [compound 54]", "Measured in vitro phosphorylation by PKC-delta": 2}
{"substance": "64 (ALRAPKPTLRYFTTERF) [compound 64]", "Measured in vitro phosphorylation by PKC-delta": 1}
{"substance": "2 (KKKKRASFKRKSSKKG) [compound 2]", "Measured in vitro phosphorylation by PKC-delta": 76}
{"substance": "61 (VDNILKKSNKKLEEL) [compound 61]", "Measured in vitro phosphorylation by PKC-delta": 1}
{"substance": "23 (QKRHARVTVKYDRRE) [compound 23]", "Measured in vitro phosphorylation by PKC-delta": 10}
{"substance": "4 (KFARKSTRRSIRLPE) [compound 4]", "Measured in vitro phosphorylation by PKC-delta": 52}
{"substance": "73 (IDYYKKTTNGRLPVK) [compound 73]", "Measured in vitro phosphorylation by PKC-delta": 0}
{"substance": "70 (HERKGSDKRGDNQ) [compound 70]", "Measured in vitro phosphorylation by PKC-delta": 1}
{"substance": "51 (DLLGKKVSTKTLSEDD) [compound 51]", "Measured in vitro phosphorylation by PKC-delta": 2}
{"substance": "68 (RGEGHKPSIAHRDFK) [compound 68]", "Measured in vitro phosphorylation by PKC-delta": 1}
{"substance": "40 (NMEAKKLSKDRMKKY) [compound 40]", "Measured in vitro phosphorylation by PKC-delta": 3}
{"substance": "56 (EARLGAASLKFGARD) [compound 56]", "Measured in vitro phosphorylation by PKC-delta": 2}
{"substance": "47 (ARIIGEKSFRRSVVG) [compound 47]", "Measured in vitro phosphorylation by PKC-delta": 2}
{"substance": "14 (EYLERRASRRRAV) [compound 14]", "Measured in vitro phosphorylation by PKC-delta": 20}
{"substance": "37 (AYIERMNSIHRDLRA) [compound 37]", "Measured in vitro phosphorylation by PKC-delta": 3}
{"substance": "55 (DDMEHKTLKITDFG) [compound 55]", "Measured in vitro phosphorylation by PKC-delta": 2}
{"substance": "58 (RVKLGTLRRPEGP) [compound 58]", "Measured in vitro phosphorylation by PKC-delta": 1}
{"substance": "20 (GAPPRRSSIRNAH) [compound 20]", "Measured in vitro phosphorylation by PKC-delta": 13}
{"substance": "60 (LRRKHLGTLNFGGIR) [compound 60]", "Measured in vitro phosphorylation by PKC-delta": 1}
{"substance": "35 (GLLDRKGSWKKLDDM) [compound 35]", "Measured in vitro phosphorylation by PKC-delta": 4}
{"substance": "72 (LTDPKEDPIYDEPEGLAPVPG) [compound 72]", "Measured in vitro phosphorylation by PKC-delta": 0}
{"substance": "32 (KATTKKRTLRKNDRK) [compound 32]", "Measured in vitro phosphorylation by PKC-delta": ">5"}
{"substance": "45 (VFREHQRSGSYHVRE) [compound 45]", "Measured in vitro phosphorylation by PKC-delta": 2}
{"substance": "21 (KLAVGRHSFSRRSGV) [compound 21]", "Measured in vitro phosphorylation by PKC-delta": 12}
{"substance": "24 (EKIKRSSLKKVDSLKK) [compound 24]", "Measured in vitro phosphorylation by PKC-delta": 10}
{"substance": "59 (PVNKRSKYTMMK) [compound 59]", "Measured in vitro phosphorylation by PKC-delta": 1}
{"substance": "15 (RGFLRSASLGRRASFHLE) [compound 15]", "Measured in vitro phosphorylation by PKC-delta": 18}
{"substance": "30 (KEVVRTDSLKGRRGR) [compound 30]", "Measured in vitro phosphorylation by PKC-delta": 7}
{"substance": "26 (ALRRPSLRREADD) [compound 26]", "Measured in vitro phosphorylation by PKC-delta": 9}
{"substance": "12 (KKKKKRFSFKKSFKL) [compound 12]", "Measured in vitro phosphorylation by PKC-delta": 24}
{"substance": "34 (EGGDRRASGRRK) [compound 34]", "Measured in vitro phosphorylation by PKC-delta": 5}
{"substance": "66 (GFAKKIGSGQKTWTF) [compound 66]", "Measured in vitro phosphorylation by PKC-delta": 1}
{"substance": "28 (KRPGKKGSNKRPGKR) [compound 28]", "Measured in vitro phosphorylation by PKC-delta": 8}
{"substance": "17 (AGWRKKTSFRKPKED) [compound 17]", "Measured in vitro phosphorylation by PKC-delta": 17}
{"substance": "25 (EILSRRPSYRKILND) [compound 25]", "Measured in vitro phosphorylation by PKC-delta": 9}
{"substance": "57 (KNVVKLLSSRRTQDR) [compound 57]", "Measured in vitro phosphorylation by PKC-delta": 2}
{"substance": "3 (NRKKKRTSFKRKA) [compound 3]", "Measured in vitro phosphorylation by PKC-delta": 66}
{"substance": "1 (HVRRRRGTFKRSKLRARD) [compound 1]", "Measured in vitro phosphorylation by PKC-delta": 100}
{"substance": "10 (AQIVKRASLKRGKQ) [compound 10]", "Measured in vitro phosphorylation by PKC-delta": 32}
{"substance": "48 (AVNSRRRAGQKKK) [compound 48]", "Measured in vitro phosphorylation by PKC-delta": 2}
{"substance": "6 (PRLIRRGSKKRPAR) [compound 6]", "Measured in vitro phosphorylation by PKC-delta": 40}
{"substance": "5 (RQRKRKLSFRRRTDKD) [compound 5]", "Measured in vitro phosphorylation by PKC-delta": 42}
{"substance": "19 (AGSFKRNSIKKIV) [compound 19]", "Measured in vitro phosphorylation by PKC-delta": 14}
{"substance": "29 (RKNDRKKRYTVVGNP) [compound 29]", "Measured in vitro phosphorylation by PKC-delta": 8}
